Test [1] deals with human IL-13 R130Q variant (R110Q of the mature chain) (human) (UniProt P35225). The test can be described thus: IL-13Ra2 binding inhibition ELISA, crude supernatant.
The target is the same in test [2]. The test can be described thus: direct binding ELISA, crude supernatant, relative to Lc16Hc7. A general note: ELISA stands for enzyme-linked immunosorbent assay.
The target is the same in test [3]. The test can be described thus: Biacore SPR, mAb from HEK293. (Surface plasmon resonance follows binding to a sensor surface in real time, without labels.)
Test [4] shares this target. Put plainly: Biacore SPR, mAb from CHO.

Numbering of substitutions follows the chain as printed. Names may count otherwise. “And” between values parts separate entries of the source, which are not always exact repeats. Equal entries are not always repeated.

In general, Kd refers to a measure of binding affinity in units of concentration.

B1: Lc3Hc6 (antibody, human IgG1, V domains shown)
VH: QVQLVESGGGVVQPGRSLRLSCAASGFSLSTYGMGVGWVRQAPGKGLEWVAHIWWDDVKRYNPALKSRFTISRDNSKNTLYLQMNSLRAEDTAVYYCARMGSDYDVWFDYWGQGTLVTVSS
VL: AIQLTQSPSSLSASVGDRVTITCRASKSISKYLAWYQQKPGKAPKLLIYSGSTLQSGVPSRFSGSGSGTDFTLTISSLQPEDFATYYCQQHNEYPYTFGGGTKVEIK
On to B1, for which the Percent Inhibition IL-13 R130Q (333 ng/ml) to Ra2 in test [1] turned out to be 14%. The Percent IL-13 R130Q (30 ng/ml) Binding in test [2] turned out to be 26.6%.

B2: Lc7Hc6 (antibody, human IgG1, V domains shown)
VL: B1 VL with A1D, Q37R, A43V, F83V, C88G, G100Q, V104L
VH: B1 VH
Molecule B2 returned a Percent Inhibition IL-13 R130Q (333 ng/ml) to Ra2 in test [1] of 4%. Further, in test [2], the Percent IL-13 R130Q (30 ng/ml) Binding is -0.3%.

B3: mAb Lc-2B03 + Hc2 M34S, M100L (antibody, human IgG1, V domains shown)
VH: QVTLKESGPVLVKPTETLTLTCTVSGFSLSTYGSGVGWIRQPPGKALEWLAHIWWDDVKRYNPALKSRLTISKDTSKSQVVLTMTNMDPVDTATYYCARLGSDYDVWFDYWGQGTLVTVSS
VL: EIVLTQSPATLSLSPGERATLSCRASKSISKYLAWYQQKPGQAPRLLIYSGSTLQSGIPARFSGSGSGTDFTLTISSLEPEDFAVYYCQQHDYPYTFGQGTKLEIKR
Take B3: the Kd in test [3] worked out at 0.0014 nM; in test [4], 0.0184 nM.

B4: mAb Lc-2B03 + Hc2 M34V, M100L, V106I (antibody, human IgG1, V domains shown)
VH: B3 VH with S34V, V106I
VL: B3 VL
Molecule B4 showed a Kd in test [3] of 0.0252 nM.

B5: mAb Lc-2B03 + Hc2 T31S, M34S, M100L (antibody, human IgG1, V domains shown)
VH: B3 VH with T31S
VL: B3 VL
On to B5, for which the Kd in test [3] came out at 0.0123 nM; in test [4], 0.0101 nM.

B6: mAb Lc-2B03 + Hc2 T31S, M34V, M100L (antibody, human IgG1, V domains shown)
VH: B3 VH with T31S, S34V
VL: B3 VL
With B6, the Kd in test [3] came to 0.0037 nM; in test [4], 0.0058 nM.

B7: mAb Lc-2B03 + Hc2 M34S, M100L, V106I (antibody, human IgG1, V domains shown)
VH: B3 VH with V106I
VL: B3 VL
On to B7, for which the dissociation constant Kd in test [3] is 0.0205 nM and 0.0209 nM.

B8: mAb Lc-2B03 + Hc2 T31S, M34S, M100L, V106I (antibody, human IgG1, V domains shown)
VH: B3 VH with T31S, V106I
VL: B3 VL
With B8, the Kd in test [3] amounted to 0.0152 nM; in test [4], 0.0211 nM.

B9: mAb Lc-2B03 + Hc2 M34V, M100L (antibody, human IgG1, V domains shown)
VH: B3 VH with S34V
VL: B3 VL
Take B9: the figures for the Kd in test [3] and in test [4] were 0.0164 nM and 0.019 nM, respectively.

B10: mAb Lc-2B03 + Hc2 M34Q, M100L (antibody, human IgG1, V domains shown)
VH: B3 VH with S34Q
VL: B3 VL
Take B10: the Kd in test [3] is 0.0243 nM; in test [4], 0.0251 nM.

B11: mAb Lc-2B03 + Hc2 M34E, M100L, V106I (antibody, human IgG1, V domains shown)
VH: B3 VH with S34E, V106I
VL: B3 VL
In test [3], B11 returned a Kd of 0.0114 nM.

B12: mAb Lc-2B03 + Hc2 M34E, M100L (antibody, human IgG1, V domains shown)
VH: B3 VH with S34E
VL: B3 VL
Turning to B12, the Kd in test [3] stood at 0.0076 nM.

B13: Lc15Hc1 (antibody, human IgG1, V domains shown)
VH: B3 VH with V10A, E16Q, V24F, S34M, S78N, L100M
VL: B1 VL with A1V, Q3W, L4M, S10L, V15T, T22S, K45E, S77C, P80S
On to B13, for which, in test [1], the Percent Inhibition IL-13 R130Q (333 ng/ml) to Ra2 turned out to be 44%. Besides, the Percent IL-13 R130Q (30 ng/ml) Binding in test [2] was determined as 76.2%.

B14: Lc7Hc1 (antibody, human IgG1, V domains shown)
VL: B1 VL with A1D, Q37R, A43V, F83V, C88G, G100Q, V104L
VH: B3 VH with V10A, E16Q, V24F, S34M, S78N, L100M
Turning to B14, the Percent Inhibition IL-13 R130Q (333 ng/ml) to Ra2 in test [1] came to 6%. The Percent IL-13 R130Q (30 ng/ml) Binding in test [2] was -1.4%.

The record behind these values is patent US20100111959A1.
